According to US20030143158A1 (DYAX, published 2003):
Ends that are not written are not given here. fluorescein = fluorescein label on the lysine side chain

T1: fibrinogen (UniProt P02671 20-629; P02675 31-491; P02679 27-437, limits assumed)
T1 construct: Biotinylated and immobilised through streptavidin for ELISA
T1 sequence (looked up) 1: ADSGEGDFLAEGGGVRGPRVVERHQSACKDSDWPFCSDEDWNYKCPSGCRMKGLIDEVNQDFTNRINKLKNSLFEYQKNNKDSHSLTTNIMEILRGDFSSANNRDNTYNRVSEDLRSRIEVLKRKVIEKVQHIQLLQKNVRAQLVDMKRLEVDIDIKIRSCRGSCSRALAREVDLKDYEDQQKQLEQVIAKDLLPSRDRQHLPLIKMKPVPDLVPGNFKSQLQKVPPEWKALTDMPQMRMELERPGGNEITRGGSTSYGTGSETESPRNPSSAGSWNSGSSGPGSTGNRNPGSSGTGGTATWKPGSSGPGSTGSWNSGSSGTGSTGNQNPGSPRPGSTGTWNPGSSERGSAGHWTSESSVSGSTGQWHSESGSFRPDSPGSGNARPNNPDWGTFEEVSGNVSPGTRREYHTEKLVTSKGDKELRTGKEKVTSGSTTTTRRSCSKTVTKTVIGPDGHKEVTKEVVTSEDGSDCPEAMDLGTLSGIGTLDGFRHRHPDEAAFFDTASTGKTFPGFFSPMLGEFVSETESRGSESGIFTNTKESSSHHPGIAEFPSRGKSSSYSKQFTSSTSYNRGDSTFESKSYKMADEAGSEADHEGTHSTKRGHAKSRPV
T1 sequence (looked up) 2: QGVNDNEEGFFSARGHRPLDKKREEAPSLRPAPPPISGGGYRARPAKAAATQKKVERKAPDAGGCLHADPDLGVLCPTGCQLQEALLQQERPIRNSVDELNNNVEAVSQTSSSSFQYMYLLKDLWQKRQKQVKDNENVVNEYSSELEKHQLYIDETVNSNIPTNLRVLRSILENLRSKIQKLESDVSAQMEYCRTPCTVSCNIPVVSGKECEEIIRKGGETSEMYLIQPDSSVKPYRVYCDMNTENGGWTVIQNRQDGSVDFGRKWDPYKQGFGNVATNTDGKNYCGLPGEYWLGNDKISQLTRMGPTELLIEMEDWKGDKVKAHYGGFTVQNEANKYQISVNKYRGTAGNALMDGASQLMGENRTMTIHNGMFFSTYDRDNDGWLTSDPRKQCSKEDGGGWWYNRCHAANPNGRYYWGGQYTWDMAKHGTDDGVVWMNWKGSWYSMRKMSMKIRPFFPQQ
T1 sequence (looked up) 3: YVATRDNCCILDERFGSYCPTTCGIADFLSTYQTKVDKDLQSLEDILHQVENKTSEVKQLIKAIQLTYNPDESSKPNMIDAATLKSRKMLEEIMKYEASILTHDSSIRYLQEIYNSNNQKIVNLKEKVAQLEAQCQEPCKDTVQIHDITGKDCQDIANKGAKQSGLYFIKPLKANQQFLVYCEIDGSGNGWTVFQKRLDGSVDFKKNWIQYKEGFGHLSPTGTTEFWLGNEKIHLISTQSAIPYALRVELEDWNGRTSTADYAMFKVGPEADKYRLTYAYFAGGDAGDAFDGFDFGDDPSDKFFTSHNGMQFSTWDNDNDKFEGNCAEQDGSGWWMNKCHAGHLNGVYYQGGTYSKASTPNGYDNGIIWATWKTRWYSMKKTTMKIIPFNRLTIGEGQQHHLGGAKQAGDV

T2: fibrin (UniProt P02671 36-629; P02675 45-491; P02679 27-437, limits assumed)
T2 construct: Polymerised fibrin formed on 96-well plates from fibrinogen and thrombin; also called dried fibrin; fibrin target
T2 sequence (looked up) 1: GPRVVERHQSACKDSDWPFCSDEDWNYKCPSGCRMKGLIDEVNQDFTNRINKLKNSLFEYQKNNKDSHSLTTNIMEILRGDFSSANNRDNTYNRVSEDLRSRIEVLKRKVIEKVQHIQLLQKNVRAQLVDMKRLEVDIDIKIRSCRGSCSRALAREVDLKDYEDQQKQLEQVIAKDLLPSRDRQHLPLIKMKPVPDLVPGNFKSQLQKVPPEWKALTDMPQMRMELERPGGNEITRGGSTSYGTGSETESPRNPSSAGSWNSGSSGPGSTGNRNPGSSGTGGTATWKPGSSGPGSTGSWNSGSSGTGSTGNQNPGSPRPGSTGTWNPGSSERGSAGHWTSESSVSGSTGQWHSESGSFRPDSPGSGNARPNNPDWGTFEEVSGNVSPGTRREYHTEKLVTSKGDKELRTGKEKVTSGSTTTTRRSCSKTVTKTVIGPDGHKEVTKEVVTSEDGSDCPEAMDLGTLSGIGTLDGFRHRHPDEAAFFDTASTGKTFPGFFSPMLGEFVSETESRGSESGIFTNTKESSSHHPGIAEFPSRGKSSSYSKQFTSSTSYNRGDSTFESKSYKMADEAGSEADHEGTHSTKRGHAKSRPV
T2 sequence (looked up) 2: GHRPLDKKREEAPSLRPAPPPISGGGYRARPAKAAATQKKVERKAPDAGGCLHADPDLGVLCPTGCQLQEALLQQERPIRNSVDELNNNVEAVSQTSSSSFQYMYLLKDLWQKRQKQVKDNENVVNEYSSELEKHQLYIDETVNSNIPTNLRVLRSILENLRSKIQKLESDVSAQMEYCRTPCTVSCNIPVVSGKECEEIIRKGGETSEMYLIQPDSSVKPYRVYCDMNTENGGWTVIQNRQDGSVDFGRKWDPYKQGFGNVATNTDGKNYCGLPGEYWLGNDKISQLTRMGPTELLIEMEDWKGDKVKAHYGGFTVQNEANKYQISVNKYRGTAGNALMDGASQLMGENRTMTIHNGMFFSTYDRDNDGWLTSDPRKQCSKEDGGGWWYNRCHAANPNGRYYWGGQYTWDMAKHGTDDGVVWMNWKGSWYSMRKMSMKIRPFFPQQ
T2 sequence (looked up) 3: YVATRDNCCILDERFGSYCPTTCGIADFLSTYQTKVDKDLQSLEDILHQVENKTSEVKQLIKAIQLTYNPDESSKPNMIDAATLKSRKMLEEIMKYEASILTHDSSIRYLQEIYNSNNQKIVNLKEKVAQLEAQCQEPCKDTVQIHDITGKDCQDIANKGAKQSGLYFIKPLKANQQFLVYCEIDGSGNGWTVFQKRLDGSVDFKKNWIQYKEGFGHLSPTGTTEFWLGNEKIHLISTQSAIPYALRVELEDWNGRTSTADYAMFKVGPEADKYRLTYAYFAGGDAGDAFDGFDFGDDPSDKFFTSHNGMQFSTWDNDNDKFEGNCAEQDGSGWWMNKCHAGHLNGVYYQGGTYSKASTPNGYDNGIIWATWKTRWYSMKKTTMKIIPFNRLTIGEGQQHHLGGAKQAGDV


Legend:
[1] = molecular target: DD(E), soluble fibrin-derived polypeptide (complex of DD dimer with the central E domain of fibrin) (human) (UniProt P02671); test: fluorescence polarization (anisotropy), fluorescein-labeled peptide with DD(E)
[2] = molecular target: DD(E), soluble fibrin-derived polypeptide (complex of DD dimer with the central E domain of fibrin) (human) (UniProt P02671); test: fluorescence anisotropy (polarization): fluorescein-labeled peptide titrated with DD(E) protein
fibrinogen = molecular target: T1, fibrinogen; test: phage ELISA on immobilised fibrinogen
Procedure: After five rounds of selection, the eluted phage were propagated and a portion plated to isolate phage plaques arising from individual clones. Ninety such clones were selected randomly, propagated, and tested individually for binding to fibrin in a dried fibrin plate assay. Dried fibrin plates were prepared as described above for the library screening. Phage samples (˜10⁹ phage each) were incubated in the dried fibrin plate wells in binding buffer (50 mM Tris, 150 mM NaCl, 2 mM CaCl₂, 0.05% Tween-20) containing 0.1% HSA. After 1 hour, the plates were washed 5 times with binding buffer. Anti-M13 antibody conjugated to horseradish peroxidase (Pharmacia) was added at 1/5000 dilution in binding buffer to the wells and incubated with the fibrin for 1 hour. The wells were again washed 5 times with binding buffer and the presence of the antibody/phage/fibrin complex was measured with HRP calorimetric reagents (3,3′,5,5′-tetramethylbenzidine (TMB) and […]). A high absorbance at 595 nm (due to oxidized TMB) was indicative of a tight phage/fibrin interaction, and phage clones corresponding to those wells were identified as bearing fibrin-binding moieties.
These fibrin-binding positive clones were subjected to several secondary ELISA assays. These assays followed a similar protocol to that detailed above for the dried fibrin ELISA assay, the only variations being the method of target immobilization and the omission of HSA from binding and wash buffers. A screen against DD(E) acted as a further confirmation of fibrin binding activity. […] Finally, ELISAs to assay binding to immobilized HSA (passively bound to the polystyrene plate) and a target-free microtiter plate were controls to eliminate phage that bound promiscuously or nonspecifically.
The ELISAs were performed as described above.

fibrin = molecular target: T2, fibrin; test: equilibrium binding to dried fibrin plates, free peptide measured by mass spectrometry
Procedure: A fibrinogen solution was prepared at 10 mg/ml (or at twice the concentration of fibrin desired) in TBS buffer (50 mM Tris, 150 mM NaCl, pH 7.4). The fibrinogen solution typically contained ˜17 mM citrate. Subsequently, a solution was prepared containing 2 U/ml thrombin, 20 mM CaCl₂, and 5 mM ε-aminocaproic acid in TBS. The fibrinogen solution and thrombin solution were mixed 1:1 in the wells of a 96-well plate, aliquoting 50 μL of each solution in each well (total volume=100 μL). The plates were evaporated to dryness overnight at 37° C. The polypeptide to be tested, dissolved in water, was added to each well at concentrations between 1-200 μM. […] The plate containing the peptide and (rehydrated) dried fibrin was covered and incubated at 37° C. on a shaker table for 2 hours.
The supernatant in each well was removed by pipette and the concentration of the polypeptide was measured by mass spectrometry. The ion current detected at the mass of the peptide was monitored after injection of a sample into the mass spectrometer. The area-under-the-peak was quantified and compared to standards of known concentration. The concentration of peptide in the supernatant is equal to the concentration of free peptide. The concentration of bound peptide was determined by subtracting the concentration of free peptide from the total (starting) concentration. […]

Binder | binding result (fibrinogen) | other results
Ac-WQPCPWESWTFCWDPGGGK(fluorescein)-NH2 (not fully specified; printed as Ac-WQPCPWESWTFCWDPGGGK(fluorescein)-NH2; cysteine pairing not given here) [synthetic fibrin-binding peptide DX-303] | – | Kd [1]: 500 nM; Kd [2]: 500 nM
WKACPGEDWLFCWGS [phage isolate 002-37-H02] | no binding | –
WQPCPWESWTFCWDP [phage isolate 002-37-C11] | no binding | –
WAPCQEEPWLFCFHG [phage isolate 002-37-D02] | no binding | –
WELCSDENWLWCWPH (not fully specified (bridges); cysteine pairing not given here; also: displayed on M13 phage, The two Cys are believed to form a disulfide) [phage isolate 002-35-E01] | no binding | –
RAPCDYYGTCVEL [phage isolate 002-36-H04] | no binding | –
WMMCPMSEWLYCWSA [phage isolate 002-36-A02] | no binding | –
AEGTGSQWECPYGLCWIQAPGK (not fully specified (bridges); printed as Ala-Glu-Gly-Thr-Gly-Ser-Gln-Trp-Glu-Cys-Pro-Tyr-Gly-Leu-Cys-Trp-Ile-Gln-Ala-Pro-Gly-Lys; cysteine pairing not given here) [synthetic peptide DX-101] | – | Kd (fibrin): 700 nM
Ac-WAPCQEEPWLFCFHGGGGK(fluorescein)-NH2 (not fully specified; printed as Ac-WAPCQEEPWLFCFHGGGGK(fluorescein)-NH2; cysteine pairing not given here) [synthetic fibrin-binding peptide DX-304] | – | Kd [1]: 400 nM; Kd [2]: 350 nM
